From article PMC6846478

How the values were obtained:
RNase H1 HBD K59A,K60A = target: T1, RNase H1 HBD K59A,K60A (human, UniProt O60930 1-80, K59A;K60A); assay: NanoBRET
T1 sequence: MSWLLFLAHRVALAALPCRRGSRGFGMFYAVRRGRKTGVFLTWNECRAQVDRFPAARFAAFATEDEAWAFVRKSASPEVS

RNase H1 CAT R179A = target: T2, RNase H1 CAT R179A (human, UniProt O60930 81-286, R179A); assay: NanoBRET
T2 sequence: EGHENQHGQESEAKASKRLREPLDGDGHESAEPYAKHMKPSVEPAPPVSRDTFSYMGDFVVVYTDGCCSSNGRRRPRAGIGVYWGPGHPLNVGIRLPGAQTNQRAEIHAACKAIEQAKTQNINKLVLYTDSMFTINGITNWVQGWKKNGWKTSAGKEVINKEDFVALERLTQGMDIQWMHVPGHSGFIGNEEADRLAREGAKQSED

RNase H1 CAT N151A = target: T3, RNase H1 CAT N151A (human, UniProt O60930 81-286, N151A); assay: NanoBRET
T3 sequence: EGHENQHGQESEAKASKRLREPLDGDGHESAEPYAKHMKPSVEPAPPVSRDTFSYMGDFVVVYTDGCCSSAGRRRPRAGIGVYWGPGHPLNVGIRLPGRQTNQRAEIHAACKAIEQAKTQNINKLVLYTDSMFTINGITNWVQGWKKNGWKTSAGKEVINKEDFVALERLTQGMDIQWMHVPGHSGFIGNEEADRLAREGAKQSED

NLuc-P54nrb full length [1] = target: T4, NLuc-P54nrb full length (human, UniProt Q15233 1-471); assay: NanoBRET
T4 sequence: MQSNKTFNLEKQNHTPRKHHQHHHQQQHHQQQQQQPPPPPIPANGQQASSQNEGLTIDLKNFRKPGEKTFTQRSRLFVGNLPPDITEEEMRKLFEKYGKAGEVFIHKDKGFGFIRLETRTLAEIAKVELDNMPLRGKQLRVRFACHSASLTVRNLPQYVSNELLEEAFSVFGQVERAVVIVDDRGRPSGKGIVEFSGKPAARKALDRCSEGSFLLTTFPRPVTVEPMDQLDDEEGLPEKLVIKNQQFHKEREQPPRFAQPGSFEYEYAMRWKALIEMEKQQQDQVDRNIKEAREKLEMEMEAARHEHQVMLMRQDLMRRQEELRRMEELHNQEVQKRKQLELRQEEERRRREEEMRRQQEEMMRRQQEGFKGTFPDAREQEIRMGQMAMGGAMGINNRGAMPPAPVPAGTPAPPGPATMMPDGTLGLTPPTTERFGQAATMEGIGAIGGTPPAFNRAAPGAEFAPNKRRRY

NLuc-P54nrb full length [2] = target: T4, NLuc-P54nrb full length; assay: competition

B1: PO DNA/RNA heteroduplex (DNA:RNA)
DNA: CTGCTAGCCTCTGGATTTGA
RNA: UCAAAUCCAGAGGCUAGCAG
binding signal (RNase H1 HBD K59A,K60A): ~10 fold weaker than WT HBD | binding signal (RNase H1 CAT R179A): > 2 fold weaker than WT CAT | binding signal (RNase H1 CAT N151A): > 7 fold weaker than WT CAT

CTGCTAGCCTCTGGATTTGA (XNA, full PS; 5-10-5 gapmer, 2'-F wings, DNA gap) [ASO 766638 (2'-F gapmer)]
Kd (NLuc-P54nrb full length [1]): ~3 nM

CTGCTAGCCTCTGGATTTGA (ssDNA) [PO DNA]
binding result (NLuc-P54nrb full length [2]): no binding

CUGCUAGCCUCUGGAUUUGA (ssRNA) [PO RNA]
binding result (NLuc-P54nrb full length [2]): no binding
